Reference: US20230346885A1 (published 2023)

Experiments:
Test in all cases: binding, other
KLK4 peptide on HLA = target: T1, KLK4 peptide on HLA (human)
T1 peptide: FQNSYTIGL

MAGEB2 peptide on HLA = target: T2, MAGEB2 peptide on HLA (human)
T2 peptide: KVLEFLAKV

MAGEC1 peptide on HLA [1] = target: T3, MAGEC1 peptide on HLA (human)
T3 peptide: ILQSSPESA

MAGEC1 peptide on HLA [2] = target: T4, MAGEC1 peptide on HLA (human)
T4 peptide: FLAMLKNTV

NPSR1 peptide on HLA = target: T5, NPSR1 peptide on HLA (human)
T5 peptide: VIIQNLPAL

NR0B1 peptide on HLA [3] = target: T6, NR0B1 peptide on HLA (human)
T6 peptide: GLLKTLRFV

NR0B1 peptide on HLA [4] = target: T7, NR0B1 peptide on HLA (human)
T7 peptide: GLPGGRPVAL

PAEP peptide on HLA = target: T8, PAEP peptide on HLA (human)
T8 peptide: AMATNNISL

B1: TCR of SEQ ID NOs 411 and 412 (TCR, V domains shown)
Valpha: KQEVTQIPAALSVPEGENLVLNCSFTDSAIYNLQWFRQDPGKGLTSLLLIQSSQREQTSGRLNASLDKSSGRSTLYIAASQPGDSATYLCAVSGGSYIPTFGRGTSLIVHP
Vbeta: NAGVTQTPKFRVLKTGQSMTLLCAQDMNHEYMYWYRQDPGMGLRLIHYSVGEGTTDKGEVPDGYNVSRSTTEDFPLRLLSAAPSQTSVYFCASRKAGYGYTFGSGTRLTVV
B1: recognises (KLK4 peptide on HLA).

B2: TCR of SEQ ID NOs 419 and 420 (TCR, V domains shown)
Valpha: KQEVTQIPAALSVPEGENLVLNCSFTDSAIYNLQWFRQDPGKGLTSLLLIQSSQREQTSGRLNASLDKSSGRSTLYIAASQPGDSATYLCAVSGGTTDSWGKLQFGAGTQVVVTP
Vbeta: NAGVTQTPKFQVLKTGQSMTLQCAQDMNHEYMSWYRQDPGMGLRLIHYSVGAGITDQGEVPNGYNVSRSTTEDFPLRLLSAAPSQTSVYFCASSFTPYEGYTFGSGTRLTVV
B2: recognises (MAGEB2 peptide on HLA).

B3: TCR of SEQ ID NOs 421 and 422 (TCR, V domains shown)
Valpha: KQEVTQIPAALSVPEGENLVLNCSFTDSAIYNLQWFRQDPGKGLTSLLLIQSSQREQTSGRLNASLDKSSGRSTLYIAASQPGDSATYLCAVESDDYKLSFGAGTTVTVRA
Vbeta: NAGVTQTPKFQVLKTGQSMTLQCAQDMNHNSMYWYRQDPGMGLRLIYYSASEGTTDKGEVPNGYNVSRLNKREFSLRLESAAPSQTSVYFCASSEALGGVTDTQYFGPGTRLTVL
B3: recognises (MAGEB2 peptide on HLA).

B4: TCR of SEQ ID NOs 423 and 424 (TCR, V domains shown)
Valpha: KQEVTQIPAALSVPEGENLVLNCSFTDSAIYNLQWFRQDPGKGLTSLLLIQSSQREQTSGRLNASLDKSSGRSTLYIAASQPGDSATYLCAVSGGATDSWGKLQFGAGTQVVVTP
Vbeta: NAGVTQTPKFQVLKTGQSMTLQCAQDMNHEYMSWYRQDPGMGLRLIHYSVGAGITDQGEVPNGYNVSRSTTEDFPLRLLSAAPSQTSVYFCASSYSPWTEAFFGQGTRLTVV
B4: recognises (MAGEB2 peptide on HLA).

B5: TCR of SEQ ID NOs 425 and 426 (TCR, V domains shown)
Valpha: KQEVTQIPAALSVPEGENLVLNCSFTDSAIYNLQWFRQDPGKGLTSLLLIQSSQREQTSGRLNASLDKSSGRSTLYIAASQPGDSATYLCAVRDDYKLSFGAGTTVTVRA
Vbeta: NAGVTQTPKFRVLKTGQSMTLLCAQDMNHEYMYWYRQDPGMGLRLIHYSVGEGTTAKGEVPDGYNVSRLKKQNFLLGLESAAPSQTSVYFCASSYGPGQIYGYTFGSGTRLTVV
B5: recognises (MAGEC1 peptide on HLA [1]).

B6: TCR of SEQ ID NOs 427 and 428 (TCR, V domains shown)
Valpha: KQEVTQIPAALSVPEGENLVLNCSFTDSAIYNLQWFRQDPGKGLTSLLLIQSSQREQTSGRLNASLDKSSGRSTLYIAASQPGDSATYLCAVRNDYKLSFGAGTTVTVRA
Vbeta: NAGVTQTPKFRVLKTGQSMTLLCAQDMNHEYMYWYRQDPGMGLRLIHYSVGEGTTAKGEVPDGYNVSRLKKQNFLLGLESAAPSQTSVYFCASSYGPGQIYGYTFGPGTRLTVL
B6: recognises (MAGEC1 peptide on HLA [1]).

B7: TCR of SEQ ID NOs 429 and 430 (TCR, V domains shown)
Valpha: KQEVTQIPAALSVPEGENLVLNCSFTDSAIYNLQWFRQDPGKGLTSLLLIQSSQREQTSGRLNASLDKSSGRSTLYIAASQPGDSATYLCAVRPFSGGYNKLIFGAGTRLAVHP
Vbeta: NAGVTQTPKFQVLKTGQSMTLQCTQDMNHNYMYWYRQDPGMGLKLIYYSVGAGITDQGEVPNGYNVSRSTTEDFPLRLLSAAPSQTSVYFCASSPEYGYYEQYFGPGTRLTVT
B7: recognises (MAGEC1 peptide on HLA [1]).

B8: TCR of SEQ ID NOs 431 and 432 (TCR, V domains shown)
Valpha: KQEVTQIPAALSVPEGENLVLNCSFTDSAIYNLQWFRQDPGKGLTSLLLIQSSQREQTSGRLNASLDKSSGRSTLYIAASQPGDSATYLCAVGGYNKLIFGAGTRLAVHP
Vbeta: NAGVTQTPKFQVLKTGQSMTLQCAQDMNHNSMYWYRQDPGMGLRLIYYSASEGTTDKGEVPNGYNVSRSTTEDFPLRLLSAAPSQTSVYFCASSLDPLAEAFFGQGTRLTVV
B8: recognises (MAGEC1 peptide on HLA [2]).

B9: TCR of SEQ ID NOs 433 and 434 (TCR, V domains shown)
Valpha: KQEVTQIPAALSVPEGENLVLNCSFTDSAIYNLQWFRQDPGKGLTSLLLIQSSQREQTSGRLNASLDKSSGRSTLYIAASQPGDSATYLCAVESGNQFYFGTGTSLTVIP
Vbeta: NAGVTQTPKFQVLKTGQSMTLQCAQDMNHEYMSWYRQDPGMGLRLIHYSVGVGITDQGEVPNGYNVSRSTTEDFPLRLLSAAPSQTSVYFCASSFGQGSSPLHFGNGTRLTVT
B9: recognises (MAGEC1 peptide on HLA [2]).

B10: TCR of SEQ ID NOs 435 and 436 (TCR, V domains shown)
Valpha: KQEVTQIPAALSVPEGENLVLNCSFTDSAIYNLQWFRQDPGKGLTSLLLIQSSQREQTSGRLNASLDKSSGRSTLYIAASQPGDSATYLCAALSYNTDKLIFGTGTRLQVFP
Vbeta: NAGVTQTPKFRVLKTGQSMTLLCAQDMNHEYMYWYRQDPGMGLRLIHYSVGEGTTAKGEVPDGYNVSRLKKQNFLLGLESAAPSQTSVYFCASKDIPYTEAFFGQGTRLTVV
B10: recognises (MAGEC1 peptide on HLA [2]).

B11: TCR of SEQ ID NOs 443 and 444 (TCR, V domains shown)
Valpha: QKEVEQNSGPLSVPEGAIASLNCTYSDRGSQSFFWYRQYSGKSPELIMSIYSNGDKEDGRFTAQLNKASQYVSLLIRDSQPSDSATYLCAVNDSWGKLQFGAGTQVVVTP
Vbeta: DGGITQSPKYLFRKEGQNVTLSCEQNLNHDAMYWYRQDPGQGLRLIYYSQIVNDFQKGDIAEGYSVSREKKESFPLTVTSAQKNPTAFYLCASSMVPGFSEQFFGPGTRLTVL
B11: recognises (NPSR1 peptide on HLA).

B12: TCR of SEQ ID NOs 445 and 446 (TCR, V domains shown)
Valpha: KQEVTQIPAALSVPEGENLVLNCSFTDSAIYNLQWFRQDPGKGLTSLLLIQSSQREQTSGRLNASLDKSSGRSTLYIAASQPGDSATYLCAVSPVTSYDKVIFGPGTSLSVIP
Vbeta: NAGVTQTPKFRVLKTGQSMTLLCAQDMNHEYMYWYRQDPGMGLRLIYYSASEGTTDKGEVPNGYNVSRLNKREFSLRLESAAPSQTSVYFCASSYSWFGDGTEAFFGQGTRLTVV
B12: recognises (NPSR1 peptide on HLA).

B13: TCR of SEQ ID NOs 447 and 448 (TCR, V domains shown)
Valpha: QKEVEQNSGPLSVPEGAIASLNCTYSDRGSQSFFWYRQYSGKSPELIMSIYSNGDKEDGRFTAQLNKASQYVSLLIRDSQPSDSATYLCAVSAAGNKLTFGGGTRVLVKP
Vbeta: NAGVTQTPKFRILKIGQSMTLQCTQDMNHNYMYWYRQDPGMGLKLIYYSAGAGITDKGEVPNGYNVSRSTTEDFPLRLELAAPSQTSVYFCASSYFGEQYFGPGTRLTVT
B13: recognises (NPSR1 peptide on HLA).

B14: TCR of SEQ ID NOs 449 and 450 (TCR, V domains shown)
Valpha: KQEVTQIPAALSVPEGENLVLNCSFTDSAIYNLQWFRQDPGKGLTSLLLIQSSQREQTSGRLNASLDKSSGRSTLYIAASQPGDSATYLCAVRPGDSWGKLQFGAGTQVVVTP
Vbeta: NAGVTQTPKFQVLKTGQSMTLQCAQDMNHEYMSWYRQDPGMGLKLIYYSVGAGITDKGEVPNGYNVSRSTTEDFPLRLLSAAPSQTSVYFCASSSPVGTAFFGQGTRLTVV
B14: recognises (NR0B1 peptide on HLA [3]).

B15: TCR of SEQ ID NOs 451 and 452 (TCR, V domains shown)
Valpha: KQEVTQIPAALSVPEGENLVLNCSFTDSAIYNLQWFRQDPGKGLTSLLLIQSSQREQTSGRLNASLDKSSGRSTLYIAASQPGDSATYLCAVGTDSWGKFQFGAGTQVVVTP
Vbeta: NAGVTQTPKFQVLKTGQSMTLQCAQDMNHEYMSWYRQDPGMGLRLIHYSVGAGITDQGEVPNGYNVSRSTTEDFPLRLLSAAPSQTSVYFCASSYSVDSPLHFGNGTRLSVL
B15: recognises (NR0B1 peptide on HLA [3]).

B16: TCR of SEQ ID NOs 453 and 454 (TCR, V domains shown)
Valpha: KQEVTQIPAALSVPEGENLVLNCSFTDSAIYNLQWFRQDPGKGLTSLLLIQSSQREQTSGRLNASLDKSSGRSTLYIAASQPGDSATYLCAVGTDSWGKFQFGAGTQVVVTP
Vbeta: NAGVTQTPKFQVLKTGQSMTLQCAQDMNHEYMSWYRQDPGMGLRLIHYSVGAGITDQGEVPNGYNVSRSTTEDFPLRLLSAAPSQTSVYFCASSFSPNTEAFFGQGTRLTVV
B16: recognises (NR0B1 peptide on HLA [3]).

B17: TCR of SEQ ID NOs 455 and 456 (TCR, V domains shown)
Valpha: KQEVTQIPAALSVPEGENLVLNCSFTDSAIYNLQWFRQDPGKGLTSLLLIQSSQREQTSGRLNASLDKSSGRSTLYIAASQPGDSATYLCAVRGYQKVTFGTGTKLQVIP
Vbeta: NAGVTQTPKFQVLKTGQSMTLQCAQDMNHEYMSWYRQDPGMGLRLIHYSVGAGITDQGEVPNGYNVSRSTTEDFPLRLLSAAPSQTSVYFCATSGLNTEAFFGQGTRLTVV
B17: recognises (NR0B1 peptide on HLA [4]).

B18: TCR of SEQ ID NOs 457 and 458 (TCR, V domains shown)
Valpha: KQEVTQIPAALSVPEGENLVLNCSFTDSAIYNLQWFRQDPGKGLTSLLLIQSSQREQTSGRLNASLDKSSGRSTLYIAASQPGDSATYLCAVSGYSTLTFGKGTMLLVSP
Vbeta: NAGVTQTPKFRVLKTGQSMTLLCAQDMNHEYMYWYRQDPGMGLRLIHYSVGEGTTAKGEVPDGYNVSRLKKQNFLLGLESAAPSQTSVYFCASTGGGPPLNTEAFFGQGTRLTVV
B18: recognises (NR0B1 peptide on HLA [4]).

B19: TCR of SEQ ID NOs 459 and 460 (TCR, V domains shown)
Valpha: KQEVTQIPAALSVPEGENLVLNCSFTDSAIYNLQWFRQDPGKGLTSLLLIQSSQREQTSGRLNASLDKSSGRSTLYIAASQPGDSATYLCAASGYSTLTFGKGTMLLVSP
Vbeta: NAGVTQTPKFQVLKTGQSMTLQCAQDMNHEYMSWYRQDPGMGLRLIHYSVGAGITDQGEVPNGYNVSRSTTEDFPLRLLSAAPSQTSVYFCASRLGQFGQAFFGQGTRLTVV
B19: recognises (NR0B1 peptide on HLA [4]).

B20: TCR of SEQ ID NOs 461 and 462 (TCR, V domains shown)
Valpha: KQEVTQIPAALSVPEGENLVLNCSFTDSAIYNLQWFRQDPGKGLTSLLLIQSSQREQTSGRLNASLDKSSGRSTLYIAASQPGDSATYLCAVSRSWGKFQFGAGTQVVVTP
Vbeta: NAGVTQTPKFQVLKTGQSMTLQCAQDMNHEYMSWYRQDPGMGLRLIHYSVGAGITDQGEVPNGYNVSRLNKREFSLRLESAAPSQTSVYFCASSLTGGAEYGYTFGSGTRLTVV
B20: recognises (PAEP peptide on HLA).

B21: TCR of SEQ ID NOs 463 and 464 (TCR, V domains shown)
Valpha: KQEVTQIPAALSVPEGENLVLNCSFTDSAIYNLQWFRQDPGKGLTSLLLIQSSQREQTSGRLNASLDKSSGRSTLYIAASQPGDSATYLCAVQGGSEKLVFGKGTKLTVNP
Vbeta: NAGVTQTPKFQVLKTGQSMTLQCAQDMNHNSMYWYRQDPGMGLRLIYYSASEGTTDKGEVPNGYNVSRLNKREFSLRLESAAPSQTSVYFCASSEEWSYGYTFGSGTRLTVV
B21: recognises (PAEP peptide on HLA).
